# Experimental data as given in patent publication US20220372514A1 (SPYBIOTECH, published 2022).
# Where two headings read alike, the source gives them in different places.
# B1: DogCatcher (designed binder)
# chain: MGSSHHHHHHSSGLVPRGSHMKLGDIEFIKVNKNDKKPLRGAVFSLQKQHPDYPDIYGAIDQNGTYQNVRTGEDGKLTFKNLSDGKYRLFENSEPAGYKPVQNKPIVAFQIVNGEVRDVTSIVPQ
# notes: His-tagged DogCatcher expressed in E. coli; forms a spontaneous isopeptide bond with DogTag; also called DC; RrgACatcher
# B2: Biotin-SnoopTagJr (peptide)
# peptide: GKLGSIEFIKVNK
# modifications: N-terminal biotin
# notes: also called SnJr-biotin; Biotinylated SnJr-peptide
# B3: DogCatcher-NANP9 (other)
# chain: MAHHHHHHVGTGKLGDIEFIKVNKNDKKPLRGAVFSLQKQHPDYPDIYGAIDQNGTYQNVRTGEDGKLTFKNLSDGKYRLFENSEPAGYKPVQNKPIVAFQIVNGEVRDVTSIVPQGSGGSGGSNANPNANPNANPNANPNANPNANPNANPNANPNANP
# B4: DogCatcher-NANP18 (other)
# chain: MAHHHHHHVGTGKLGDIEFIKVNKNDKKPLRGAVFSLQKQHPDYPDIYGAIDQNGTYQNVRTGEDGKLTFKNLSDGKYRLFENSEPAGYKPVQNKPIVAFQIVNGEVRDVTSIVPQGSGGSGGSNANPNANPNANPNANPNANPNANPNANPNANPNANPNANPNANPNANPNANPNANPNANPNANPNANPNANP
# notes: also called DC-NANP18
# B5: DogCatcher-NANP Domain (other)
# chain: MAHHHHHHVGTGKLGDIEFIKVNKNDKKPLRGAVFSLQKQHPDYPDIYGAIDQNGTYQNVRTGEDGKLTFKNLSDGKYRLFENSEPAGYKPVQNKPIVAFQIVNGEVRDVTSIVPQGSGGSGGSNANPNVDPNANPNVDPNANPNVDPNANPNANPNANPNANPNANPNANPNANPNANPNANPNANPNANPNANPNANPNANPNANPNANPNANPNVDPNANPNANPNANPNANPNANPNANPNANPNANPNANPNANPNANPNANPNANPNANPNANPNANPNANPNANP
# What was measured:
# [1] = target: hexon protein on the viral capsid of Ad5 vectors with SpyTag inserted into HVR loops (loop not specified); assay: covalent coupling of SpyCatcher to virions, SDS-PAGE band densitometry (ImageJ)
# [2] = target: T1, Ad5-HVR2-DogTag Hexon (human adenovirus serotype 5 (Ad5), UniProt P04133 30-952)
# T1 construct: also called HVR2DT; hexon-DogTag
# [3] = target: T2, Ad5-HVR1-DogTag Hexon (human adenovirus serotype 5 (Ad5), UniProt P04133 2-952)
# T2 construct: also called HVR1DT; hexon-DogTag
# [4] = target: T3, Ad5-HVR5-DogTag Hexon (human adenovirus serotype 5 (Ad5), UniProt P04133 21-952)
# T3 construct: also called HVR5DT; Ad5(GFP) HVR5 DogTag
# [5] = target: T3, Ad5-HVR5-DogTag Hexon; remark: listed apart in the source
# [6] = target: T3, Ad5-HVR5-DogTag Hexon; remark: listed apart in the source
molecule,measurement,setting,value
SpyCatcher (designed binder),% of hexon protein coupled,[1],> 50%
B1,coverage of capsid hexon (%),[2],> 90%
same,coverage of capsid hexon (%),[3],> 90%
same,coverage of capsid hexon (%),[4],> 90%
B2,binding result,[5],binds
B3,binding result,[6],binds
B4,binding result,[6],binds
B5,binding result,[6],binds
